Test results reported in patent US20210332115A1 (Sanofi, published 2021).
Values joined by “and” are separate entries in the source; they are usually repeats but may differ in a detail not shown here. Equal entries are not always repeated.

How the values were obtained:
[1] = molecular target: T1, Homo sapiens factor Bb protein (human, UniProt P00751 260-764); experiment: SPR multi-cycle kinetics, IgG on Protein A chip, factor Bb analyte
T1 construct: Bought from CompTech (A155); also called complement factor Bb; human factor Bb
T1 sequence (P00751 260-764 limits assumed): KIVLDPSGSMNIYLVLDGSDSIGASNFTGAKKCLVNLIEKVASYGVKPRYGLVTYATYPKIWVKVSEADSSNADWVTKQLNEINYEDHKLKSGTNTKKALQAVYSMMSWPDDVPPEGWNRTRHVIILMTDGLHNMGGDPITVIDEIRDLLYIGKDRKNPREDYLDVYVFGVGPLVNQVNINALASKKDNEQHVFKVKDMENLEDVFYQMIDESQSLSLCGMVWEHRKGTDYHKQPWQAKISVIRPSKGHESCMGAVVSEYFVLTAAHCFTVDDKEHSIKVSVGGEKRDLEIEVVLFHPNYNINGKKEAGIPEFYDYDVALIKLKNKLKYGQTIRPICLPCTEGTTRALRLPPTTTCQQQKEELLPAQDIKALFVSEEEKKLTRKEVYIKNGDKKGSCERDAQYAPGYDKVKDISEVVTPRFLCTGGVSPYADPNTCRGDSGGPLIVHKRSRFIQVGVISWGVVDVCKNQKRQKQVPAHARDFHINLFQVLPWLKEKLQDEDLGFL
Method: (§1) Antibodies were diluted in running buffer to a final concentration of 0.5 μg/ml. At the start of each cycle, antibodies were loaded onto Fc2, Fc3 and Fc4 of the Protein A chip (GE Healthcare, Little Chalfont, UK). IgGs were captured at a flow rate of 10 μl/min to give an immobilisation level (RL) of ˜63 RU, the theoretical value to obtain an Rmax of ˜50 RU. The surface was then allowed to stabilize. Kinetic data was obtained with factor Bb as analyte and using a flow rate of 30 μl/min to minimize any potential mass transfer effects. Multiple repeats of a blank and a repeat of a single concentration of the analyte were programmed into the kinetic run in order to check the stability of both the surface and analyte over the kinetic cycles. For kinetic analysis, a two-fold dilution range was selected from 12. 5 nM to 0. 391 nM factor Bb. The association phase of factor Bb was monitored for 360 seconds and the dissociation phase was monitored for 600 seconds. Regeneration of the Protein A surface was conducted using two injections of 10 mM glycine-HCL pH 1. 5. The signal from the reference channel Fc1 was subtracted from that of Fc2, Fc3 and Fc4 to correct for differences in non-specific binding to a reference surface, and a global Rmax parameter was used in the 1-to-1 binding model.
(§2) The sensorgrams and fitted data for the binding of chimeric antibodies and humanized variants to factor Bb are shown in FIGS. 4A-4C. The relative KD was calculated by dividing the KD of the humanized variants by that of the chimeric antibody on the same chip. The kinetic parameters measured for the interaction of factor Bb with chimeric antibodies and humanized variants are shown in Table 10.

[2] = molecular target: T1, Homo sapiens factor Bb protein; experiment: SPR multi-cycle kinetics; ratio against VH0/Vκ0 on the same chip
Method: as §1, §2

- Kd [1]: 1.99 nM and 1.91 nM and 1.9 nM
- koff [1]: 0.000969 s⁻¹ and 0.000954 s⁻¹ and 0.00094 s⁻¹
- kon [1]: 487000 M⁻¹ s⁻¹ and 500000 M⁻¹ s⁻¹ and 495000 M⁻¹ s⁻¹
- Relative KD [2]: 1
B1: VH0/Vκ0 (Chimeric) (antibody, V domains shown)
VH: EVQLVESGGALVKPGGSLKLSCAASGFTFSNYAMSWVRQTPEKRLEWVATISNRGSYTYYPDSVKGRFTISRDNAKNTLYLQMSSLRSEDTALYYCARERPMDYWGQGTSVTVSS
VL: DIVMTQSHKFMSTSVGDRVSITCKASQDVGTAVAWYQQKPGQSPKLLIYWASTRHTGVPDRFTGSGSGTDFTLTITNVQSEDLAVYFCHQHSSNPLTFGAGTKLELK
notes: also called chimeric antibody
